Measured values reported in article PMC11319651, “Distinct conformational states enable transglutaminase 2 to promote cancer cell survival versus cell death” (Communications Biology, 2024).
Residue numbers refer to the chain shown, from its start. Names and notes keep the numbering of the source.

How the values were obtained:
Transglutaminase 2 (TG2) = target: T1, Transglutaminase 2 (TG2) (Homo sapiens, UniProt P21980); assay: biochemical; parameters: inhibition of TG2 protein crosslinking activity, gel-based read-out
T1 construct: gene TGM2; N-terminal six-histidine tagged human TG2
T1 sequence (P21980 1-687): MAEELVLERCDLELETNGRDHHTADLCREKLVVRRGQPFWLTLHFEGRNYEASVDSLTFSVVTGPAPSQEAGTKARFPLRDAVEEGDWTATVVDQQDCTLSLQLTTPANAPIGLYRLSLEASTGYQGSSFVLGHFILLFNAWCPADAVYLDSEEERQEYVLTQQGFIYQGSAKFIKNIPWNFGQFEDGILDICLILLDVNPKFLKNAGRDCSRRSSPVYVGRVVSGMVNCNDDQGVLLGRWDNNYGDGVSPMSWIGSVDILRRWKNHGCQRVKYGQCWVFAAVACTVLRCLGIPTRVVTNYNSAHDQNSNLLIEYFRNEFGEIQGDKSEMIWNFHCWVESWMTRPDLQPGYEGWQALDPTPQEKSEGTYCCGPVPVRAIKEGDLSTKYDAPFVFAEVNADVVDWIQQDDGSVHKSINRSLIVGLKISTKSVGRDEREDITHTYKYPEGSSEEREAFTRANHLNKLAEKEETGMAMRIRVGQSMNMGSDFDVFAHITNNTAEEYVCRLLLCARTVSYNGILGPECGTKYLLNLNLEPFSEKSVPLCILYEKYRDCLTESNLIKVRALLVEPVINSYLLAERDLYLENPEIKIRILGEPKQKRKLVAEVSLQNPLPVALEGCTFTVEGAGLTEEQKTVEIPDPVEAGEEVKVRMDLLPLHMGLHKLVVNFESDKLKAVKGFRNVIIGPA
Text: (the LM-series, Fig. S6).

[1] = target: Transglutaminase 2 (TG2), wildtype, recombinant human (human) (UniProt P21980); assay: SAXS; static SAXS, 25 µM (2 mg/mL) TG2 with 2 mM Ca2+ for 5 min, TG2 Storage Buffer; DAMMIF envelopes (P1, P2), CRYSOL fit to the open state dimer; deconvolution into monomer and dimer
[2] = target: Transglutaminase 2 (TG2), wildtype, recombinant human (human) (UniProt P21980); assay: SAXS; time-resolved SAXS, Kenics chaotic advection mixer, TG2 1 mg/mL final, 2 mM Ca2+, 0-631 ms; deconvolution into closed state monomer and open state dimer
[3] = target: the molecule itself; assay: SAXS; static SAXS, TG2 R580K with GTP at concentrations greater than 1 mM (up to 5 mM); CRYSOL fit to the open state dimer (from crystal packing of PDB 2Q3Z)

## O=C1NC(=O)N(c2cccc(Cl)c2)C(=O)/C1=C/Nc1ccc(Cl)c(CN2C(=O)c3ccccc3C2=O)c1 [LM11]
Transglutaminase 2 (TG2)
  IC50: 10 µM

## Transglutaminase 2 (TG2), wildtype, recombinant human (from UniProt P21980 1-687) (enzyme)
[1]
  percent dimer after five minutes with Ca2+: 100%
  stoichiometry N: 2
[2]
  percent dimer at t = 0 ms: 61%

B1: TG2 R580K mutant (enzyme, human)
chain: T1 sequence (P21980 1-687) with R580K
notes: human transglutaminase 2 (TGM2), UniProt P21980, with the substitution R580K; The methods describe expression and purification only for TG2 in general; also called TG R580K
[3]
  stoichiometry N: 2
